Experimental data published in US20080124320A1, “Use of HMGB fragments as anti-inflammatory agents” (priority 2002, published 2008).

Legend:
RAW 264.7 cells [1] = assay: TNF release from RAW 264.7 cells, L929 cytotoxicity bioassay; type: cell-based, murine
Protocol: (§1) Murine macrophage-like RAW 264.7 cells (American Type Culture Collection, Rockville, Md.) were cultured in RPMI 1640 medium (Life Technologies, Grand Island N.Y.) supplemented with 10% fetal bovine serum (Gemini, Catabasas, Calif.), penicillin and streptomycin (Life Technologies) and were used at 90% confluence in serum-free Opti-MEM I medium (Life Technologies, Grand Island, N.Y.). […] Polymyxin B was not used in experiments of synthetic peptide studies.
TNF release was measured by a standard murine fibroblast L929 (ATCC, American Type Culture Collection, Rockville, Md.) cytotoxicity bioassay (Bianchi et al., Journal of Experimental Medicine 183:927-936, 1996) with the minimum detectable concentration of 30 pg/ml. […]
The effect of the mutants on TNF release from Murine macrophage-like RAW 264.7 cells (ATCC) was carried out as follows. […] Conditioned supernatants (containing TNF which had been released from the cells) were collected and TNF released from the cells was measured by a standard murine fibroblast L929 (ATCC) cytotoxicity bioassay (Bianchi et al., supra) with the minimum detectable concentration of 30 pg/ml. […]
To further examine the effect of HMGB1 B box on cytokine production, varying amounts of HMGB1 B box were evaluated for the effects on TNF, IL-1, and IL-6 production in murine macrophage-like RAW 264.7 cells. […]

[2] = molecular target: RAGE on murine macrophage-like RAW 264.7 cells (mouse (murine RAW 264.7 cells)) (UniProt Q62151); assay: cell-based or functional assay
Chain of RAGE on murine macrophage-like RAW 264.7 cells (mouse (murine RAW 264.7 cells)) (Q62151 23-402): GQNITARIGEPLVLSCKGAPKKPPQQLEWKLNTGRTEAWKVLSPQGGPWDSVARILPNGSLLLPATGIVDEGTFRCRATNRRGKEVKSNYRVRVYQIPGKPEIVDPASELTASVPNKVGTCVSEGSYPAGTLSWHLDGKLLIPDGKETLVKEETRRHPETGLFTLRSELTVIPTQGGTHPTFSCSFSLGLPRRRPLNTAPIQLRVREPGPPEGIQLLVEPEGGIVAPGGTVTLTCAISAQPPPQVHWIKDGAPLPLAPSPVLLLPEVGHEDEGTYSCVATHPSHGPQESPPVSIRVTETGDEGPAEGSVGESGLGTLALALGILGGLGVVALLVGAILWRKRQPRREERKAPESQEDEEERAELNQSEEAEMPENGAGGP

[3] = molecular target: Recombinant full length human HMGB1 (wild type HMGB1) (human); assay: cell-based or functional assay
[4] = test system: NF-κB-dependent ELAM promoter; assay: NF-κB dependent ELAM promoter luciferase reporter in RAW 264.7 macrophages; type: cell-based, murine; details: HMGB1 100 ng/ml or B box 10 μg/ml, 5 hours; decreased with MyD 88 dominant negative (FIG. 11B)
Protocol: To examine the effects of HMGB1 or HMGB1 B box on the NF KB dependent ELAM promoter, the following experiment was carried out. RAW 264.7 macrophages were transiently co transfected with an expression plasmid encoding a murine MyD 88 dominant negative (DN) mutant (corresponding to amino acids 146 296), or empty vector, plus a luciferase reporter plasmid under the control of the NF κB dependent ELAM promoter, as described by Means et al. (J. Immunol. 166:4074 4082, 2001). A portion of the cells were then stimulated with full length HMGB1 (100 ng/ml), or purified HMGB1 B box (10 μg/ml), for 5 hours. Cells were then harvested and luciferase activity was measured, using standard methods. All transfections were performed in triplicate, repeated at least three times, and a single representative experiment is shown in FIG. 11B.

C3H/HeJ mice = assay: Lethality and histology in C3H/HeJ mice; type: in vivo, mouse; details: 8 hours after administration
RAW 264.7 cells [5] = assay: IL-6 release from RAW 264.7 cells, ELISA; type: cell-based, murine; details: B box 0-10 μg/ml, 8 hours (FIG. 2C)
Protocol: as §1
To further examine the effect of HMGB1 B box on cytokine production, varying amounts of HMGB1 B box were evaluated for the effects on TNF, IL-1, and IL-6 production in murine macrophage-like RAW 264.7 cells. Conditioned media were harvested and measured for TNF, IL-1β and IL-6 levels. TNF levels were measured as described herein, and IL-1β and IL-6 levels were measured using the mouse IL-1β and IL-6 enzyme-linked immunosorbent assay (ELISA) kits (R&D System Inc., Minneapolis, Minn.) and N>5 for all experiments.

[6] = test system: Balb/c mice subjected to CLP; assay: Cecal ligation and puncture (CLP) sepsis, survival of Balb/c mice; type: in vivo, mouse; details: i.p. twice daily for 3 days beginning 24 hours after CLP
Protocol: Cecal ligation and puncture (CLP) was performed as described previously (Fink and Heard, J. Surg. Res. 49:186-196, 1990; Wichmann et al., Crit. Care Med. 26:2078-2086, 1998; and Remick et al., Shock 4:89-95, 1995). Briefly, Balb/c mice were anesthetized with 75 mg/kg ketamine (Fort Dodge, Fort Dodge, Iowa) and 20 mg/kg of xylazine (Bohringer Ingelheim, St. Joseph, Mo.) intramuscularly. A midline incision was performed, and the cecum was isolated. A 6-0 prolene suture ligature was placed at a level 5.0 mm from the cecal tip away from the ileocecal valve.
The ligated cecal stump was then punctured once with a 22-gauge needle, without direct extrusion of stool. The cecum was then placed back into its normal intra-abdominal position. […] Mortality was recorded for up to 1 week after the procedure; survivors were followed for 2 weeks to ensure no late mortalities had occurred.
To determine whether the HMGB1 A box can inhibit the lethality of HMGB1 during sepsis, mice were subjected to cecal perforation and treated by administration of A box beginning 24 hours after the onset of sepsis. […] Survival was monitored twice daily for up to 2 weeks to ensure no late death occurred. […]
Passive immunization of critically ill septic mice with anti-HMGB1 antibodies was also assessed. […] Survival was monitored for 2 weeks. […]

fkdpnapkrlpsafflfcse (FKDPNAPKRLPSAFFLFCSE; listed as Homo sapiens) [1-20]
TNF release by synthetic B box peptide fragments (RAW 264.7 cells [1]; synthetic peptide 10 μg/ml, 10 hours, no polymyxin B (FIG. 3), listed as 1-20-mer): less potent than either the full length synthetic B box (1-74-mer), or full length HMGB1

Recombinant full length human HMGB1 (wild type HMGB1) (from UniProt A9RA84 1-215) (ligand)
decrease of HMG-1 signaling (TNF release from RAW 264.7 cells) by anti-RAGE antibody [2]: 40%

HMGB1 A box protein (Amino terminus + A box mutant of human HMGB1) (from UniProt A9RA84 1-85)
inhibition of HMGB1 induced TNF release from RAW 264.7 cells (L929 cytotoxicity assay) [3]: 7.5 µg/mL

B1: HMGB1: Recombinant full length human HMGB1, SEQ ID NO:18; recombinant rat HMGB1 used in some experiments (protein, listed as Homo sapiens)
chain: MGKGDPKKPTGKMSSYAFFVQTCREEHKKKHPDASVNFSEFSKKCSERWKTMSAKEKGKFEDMAKADKARYEREMKTYIPPKGETKKKFKDPNAPKRLPSAFFLFCSEYRPKIKGEHPGLSIGDVAKKLGEMWNNTAADDKQPYEKKAAKLKEKYEKDIAAYRAKGKPDAAKKGVVKAEKSKKKKEEEEDEEDEEDEEEEEDEEDEEDEEEDDDDE
luciferase activity (NF-κB dependent ELAM promoter) [4]: stimulated luciferase activity

B2: B box: Recombinant human HMGB1 B box mutant polypeptide, SEQ ID NO:20, expressed with a GST gene fusion system in E. coli (protein, listed as Homo sapiens)
chain: FKDPNAPKRLPSAFFLFCSEYRPKIKGEHPGLSIGDVAKKLGEMWNNTAADDKQPYEKKAAKLKEKYEKDIAAY
modifications: GST fusion
histology of heart (C3H/HeJ mice): evidence of ischemia with loss of cross striation associated with amorphous pink cytoplasm in myocardial fibers
histology of liver (C3H/HeJ mice): mild acute inflammatory responses, with some hepatocyte dropout and apoptosis, and occasional polymorphonuclear leukocytes
IL-6 release, dose response (RAW 264.7 cells [5]): increased with increased amounts of B box
TNF protein expression over time versus medium only (RAW 264.7 cells [1]; 10 μg/ml, 0-48 hours (FIGS. 2E, 2F)): stimulated TNF protein expression

B3: A box: Recombinant human HMGB1 amino terminus + A box mutant, SEQ ID NO:21 (A box SEQ ID NO:22), GST fusion system (protein, listed as Homo sapiens)
chain: MGKGDPKKPTGKMSSYAFFVQTCREEHKKKHPDASVNFSEFSKKCSERWKTMSAKEKGKFEDMAKADKARYEREMKTYIPPKGET
modifications: GST fusion
clinical condition of animals ([6]; 60 μg/mouse): most died
clinical condition of animals ([6]; 600 μg/mouse): significantly more alert, active, and to resume feeding behavior
